For 1 molecule, Kd results are on record in article PMC8842248 (2022).

Experiment [1] concerns the target T1, PDE6D (phosphodiesterase 6 delta), wild type, polyhistidine tag removed (UniProt O43924 1-150). Kind of experiment: FP; replicate 3.
Experiment [2] has as its target T1, PDE6D (phosphodiesterase 6 delta), wild …. The experiment is described as follows: FP; average of 3 replicates.
The target is the same in experiment [3]. Kind of experiment: FP; + compound-1, replicate 1.
Experiment [4] shares this target. Kind of experiment: FP; + compound-1, replicate 2.
Experiment [5] shares this target. Kind of experiment: FP; + compound-1, replicate 3.
Experiment [6] has the same target. Kind of experiment: FP; in the presence of 500 uM Compound-2.
Experiment [7] shares this target. The experiment is described as follows: FP; + compound-1, average of 3 replicates.

*: point of attachment. Farnesyl = CC(C)=CCC/C(C)=C/CC/C(C)=C/C*

For the molecule {FAM}-KKKKKKSKTKC(Farnesyl)-OMe [fluorescein-labeled KRAS HVR peptide, FAM-KKKKKKSKTKC(OMe)-Far], the Kd came to 1100 nM in experiment [1]; 1400 nM in experiment [2]; 1000 nM in experiment [3]; 1700 nM in experiment [4]; 1200 nM in experiment [5]; 55200 nM in experiment [6]. In experiment [7], the dissociation constant (Kd) is 1300 nM.

What is called Kd is the concentration at which binding is half-saturated.
